The values that follow come from patent US20250387450A1.

The experiment deals with CD74 disordered region peptide (CLIP), …. Kind of experiment: modified sandwich ELISA, fluorescence grade by the table's key. (In general: In an ELISA, binding on a coated surface is turned into a signal by an enzyme label.)

With FlhG, the fluorescent signal (fluorescentsignal) lay in the range of 100000 to 250000.
